T1: ELAM-Rg, soluble ELAM-1-IgG1 chimera (ELAM-1 extracellular domain fused to hinge, CH2 and CH3 domains of … (human, UniProt P16581 22-556, limits assumed))
T1 construct: extracellular domain; Made in COS cells, recovered on protein A-agarose; appeared as disulfide-linked dimers; In adhesion assays it was captured on dishes coated with goat anti-human IgG; also called ELAM-1-Rg; ELAM-1-IgG1 fusion protein; not shown: human IgG1 hinge, CH2 and CH3 domains (genomic fragment of Aruffo et al., Cell 61:1303, 1990)
T1 sequence (looked up): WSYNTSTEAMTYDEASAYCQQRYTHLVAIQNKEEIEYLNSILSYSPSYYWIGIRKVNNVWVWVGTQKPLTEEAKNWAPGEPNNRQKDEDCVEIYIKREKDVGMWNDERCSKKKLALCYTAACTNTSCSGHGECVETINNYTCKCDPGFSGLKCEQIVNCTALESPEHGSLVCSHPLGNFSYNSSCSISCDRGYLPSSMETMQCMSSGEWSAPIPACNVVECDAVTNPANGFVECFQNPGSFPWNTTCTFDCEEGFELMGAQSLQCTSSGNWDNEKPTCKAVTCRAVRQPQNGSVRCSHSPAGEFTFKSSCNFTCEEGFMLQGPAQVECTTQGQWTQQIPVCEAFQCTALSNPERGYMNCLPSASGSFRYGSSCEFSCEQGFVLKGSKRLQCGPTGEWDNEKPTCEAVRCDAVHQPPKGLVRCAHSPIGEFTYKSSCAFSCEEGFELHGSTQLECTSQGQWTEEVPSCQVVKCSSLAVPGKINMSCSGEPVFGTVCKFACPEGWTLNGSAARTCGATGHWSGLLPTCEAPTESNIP

B1: bovine α1-acid glycoprotein fucosylated in vitro with amniotic fluid α(1,3)fucosyltransferase and GDP-fucose (other, UniProt Q3SZR3 19-202, looked up)
chain: QSPECANLMTVAPITNATMDLLSGKWFYIGSAFRNPEYNKSARAIQAAFFYLEPRHAEDKLITREYQTIEDKCVYNCSFIKIYRQNGTLSKVESDREHFVDLLLSKHFRTFMLAASWNGTKNVGVSFYADKPEVTQEQKKEFLDVIKCIGIQESEIIYTDEKKDACGPLEKQHEEERKKETEAS
modifications: N-linked glycans fucosylated in vitro (sialyl-Le^X determinants)
notes: Adsorbed to plastic or to microtiter wells; also called in vitro-fucosylated α1-acid glycoprotein; enzymatically-fucosylated α1-AGP
B2: ELAM-1 (form in this assay not stated) (receptor, UniProt P16581 22-556, looked up)
chain: T1 sequence (looked up)

Legend:
[1] = biological target: T1, ELAM-Rg, soluble ELAM-1-IgG1 chimera …; test: solid phase: α1-AGP adsorbed to wells, ELAM-Rg at 1 µg/ml, radioiodinated goat anti-human IgG, gamma counter
Protocol: Amniotic fluid fucosyltransferase was isolated by affinity chromatography and evaluated for its ability to convert α_1-AGP into an ELAM-1 ligand as follows. α(1,3) fucosyltransferase was isolated from concentrated amniotic fluid by fetuin-agarose chromatography as previously described in Hanisch et al. (*Carbohydr. Res.* 178:23, 1988) and Mitsakos et al. (*Biol. Chem. Hoppe-Seyler* 369:661, 1988). 0.8 μCi GDP^14C-fucose (225 Ci/mole) and 100 μg of bovine α_1-AGP (Sigma, St. Louis, Mo.) were added to a reaction mix containing 25 mM Tris-HCl pH 7.0, 35 mM MgCl_2 and 1 mM ATP in a final volume of 120 μl. The reaction was allowed to proceed for 24 h. at 37°, at which time approximately 10% of the ^14C-labeled fucose had been incorporated into TCA-insoluble material. Unincorporated label was removed by centrifugal ultrafiltration (Centricon 10, Amicon, Danvers, Mass.). 20 μl of a 1:5 dilution of the labelled material, or 10 μl of a 1:5 dilution of a similarly constituted reaction mixture lacking labelled GDP-fucose, was adsorbed to plastic dishes (as described above) or to 96 well microtiter plates (Falcon 3911, Becton Dickinson, Oxnard, Calif.). […] Following washing, labelled antibody binding was measured in a gamma counter. Results shown in FIG. 9 are expressed as the mean±standard deviation of quadruplicate determinations and are representative of two independent experiments.

[2] = biological target: native constant domain of human IgG1 coexpressed with fucosyltransferase (human, UniProt P01857-1 99-330 = IgG part); test: not described

| Binder | binding result [1] | binding result [2] |
| --- | --- | --- |
| B1 | binds | – |
| B2 | – | no binding |
